Results on one molecule are retold here after paper doi:10.1101/2021.01.12.426377 (bioRxiv, 2021).

Series [1] deals with the molecule itself. Nature of the series: negative-stain transmission electron microscopy.
Another series deals with T1, FtsA(E14R) (E. coli, UniProt P0ABH0 1-420, E14R).
T1 sequence: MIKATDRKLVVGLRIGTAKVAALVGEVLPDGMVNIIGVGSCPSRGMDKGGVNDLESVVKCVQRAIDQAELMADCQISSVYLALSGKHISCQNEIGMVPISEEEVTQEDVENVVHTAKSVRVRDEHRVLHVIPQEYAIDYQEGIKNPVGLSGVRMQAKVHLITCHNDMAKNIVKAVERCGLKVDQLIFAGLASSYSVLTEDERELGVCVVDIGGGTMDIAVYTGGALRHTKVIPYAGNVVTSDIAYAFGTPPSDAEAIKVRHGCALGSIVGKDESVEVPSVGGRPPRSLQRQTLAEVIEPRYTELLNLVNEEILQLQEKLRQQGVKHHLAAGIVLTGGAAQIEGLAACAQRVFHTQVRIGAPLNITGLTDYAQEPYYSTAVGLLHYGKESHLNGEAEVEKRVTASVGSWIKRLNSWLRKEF
Nature of the series: co-sedimentation.

B1: FtsZ (Escherichia coli, wild type) (natural protein)
chain: MFEPMELTNDAVIKVIGVGGGGGNAVEHMVRERIEGVEFFAVNTDAQALRKTAVGQTIQIGSGITKGLGAGANPEVGRNAADEDRDALRAALEGADMVFIAAGMGGGTGTGAAPVVAEVAKDLGILTVAVVTKPFNFEGKKRMAFAEQGITELSKHVDSLITIPNDKLLKVLGRGISLLDAFGAANDVLKGAVQGIAELITRPGLMNVDFADVRTVMSEMGYAMMGSGVASGEDRAEEAAEMAISSPLLEDIDLSGARGVLVNITAGFDLRLDEFETVGNTIRAFASDNATVVIGTSLDPDMNDELRVTVVATGIGMDKRPEITLVTNKQVQQPVMDRYQQHGMAPLTQEQKPVAKVVNDNAPQTAKEPDYLDIPAFLRKQAD
Turning to B1, the binding result (in series [1]; in the series with FtsA(E14R)) was “binds” each time.
